[ ]: non-standard residue; d: D form. The star is where a group is joined. Palmitoyl = CCCCCCCCCCCCCCCC(=O)*

The source of these data is patent US20130273058A1.

The target of this assay is GFP-tagged beta-catenin (UniProt P35222). Put plainly: microscale thermophoresis (Monolith NT.115); lysate of HEK293 cells with GFP-beta-catenin mixed with increasing CT-HC-5 in the presence of bicelles; Hill fit.
Sequence of GFP-tagged beta-catenin (P35222 whole entry): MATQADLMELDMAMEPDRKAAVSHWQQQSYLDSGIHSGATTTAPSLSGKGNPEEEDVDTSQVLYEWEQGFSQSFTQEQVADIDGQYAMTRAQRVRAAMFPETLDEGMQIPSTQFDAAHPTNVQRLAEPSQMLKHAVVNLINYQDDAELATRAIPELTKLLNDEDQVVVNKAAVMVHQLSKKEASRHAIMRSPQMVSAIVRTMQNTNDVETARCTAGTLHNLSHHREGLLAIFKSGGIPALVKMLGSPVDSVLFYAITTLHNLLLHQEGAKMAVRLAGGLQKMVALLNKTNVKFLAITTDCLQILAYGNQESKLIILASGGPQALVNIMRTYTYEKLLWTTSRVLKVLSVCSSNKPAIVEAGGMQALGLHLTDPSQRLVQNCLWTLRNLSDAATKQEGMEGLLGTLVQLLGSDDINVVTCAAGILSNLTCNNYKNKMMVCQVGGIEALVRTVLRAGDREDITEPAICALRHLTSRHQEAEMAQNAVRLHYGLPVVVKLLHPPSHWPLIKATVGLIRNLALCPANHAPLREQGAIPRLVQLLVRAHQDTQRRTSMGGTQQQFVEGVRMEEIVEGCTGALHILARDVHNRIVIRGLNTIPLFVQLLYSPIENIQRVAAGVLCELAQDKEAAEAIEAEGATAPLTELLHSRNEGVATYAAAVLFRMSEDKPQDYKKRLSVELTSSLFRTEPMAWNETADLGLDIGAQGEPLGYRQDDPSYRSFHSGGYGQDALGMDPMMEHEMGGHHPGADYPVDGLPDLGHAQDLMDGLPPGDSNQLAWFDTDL

B1: CT-HC-5 (peptide)
peptide: Palmitoyl-[dT][dR][dF][dL][dS][dS][dT][dL][dE][dV][dS][dL][dR][dK][dK]-NH2
SMILES: CCCCCCCCCCCCCCCC(=O)N[C@@H](C(=O)N[C@H](CCCNC(=N)N)C(=O)N[C@H](Cc1ccccc1)C(=O)N[C@H](CC(C)C)C(=O)N[C@H](CO)C(=O)N[C@H](CO)C(=O)N[C@@H](C(=O)N[C@H](CC(C)C)C(=O)N[C@H](CCC(=O)O)C(=O)N[C@@H](C(=O)N[C@H](CO)C(=O)N[C@H](CC(C)C)C(=O)N[C@H](CCCNC(=N)N)C(=O)N[C@H](CCCCN)C(=O)N[C@H](CCCCN)C(N)=O)C(C)C)[C@H](C)O)[C@H](C)O
B1: the Kd came out at 2700 nM.

As usually defined, the Kd is the free concentration of one partner at which half of the binding sites on the other are occupied at equilibrium, for simple one-to-one binding.
